The values that follow come from publication PMC4787775, “Molecular basis for the substrate specificity and catalytic mechanism of thymine-7-hydroxylase in fungi” (Nucleic Acids Research, 2015).

Data set [1] deals with T1, NcT7H (thymine-7-hydroxylase) (Neurospora crassa, UniProt Q7RYZ9).
T1 construct: gene NCU06416; full length (residues 1-333), C-terminal His6-tag, pET-28a, expressed in E. coli BL21(DE3); Ni-NTA and gel filtration, tag removal not mentioned
Put plainly: isothermal titration calorimetry. It is filed as binding. The text has this:
isothermal titration calorimetry on NcT7H (thymine-7-hydroxylase)
(ITC needs no label: the signal is the heat of the interaction.)

Substrate in data set [2]: O=c1[nH]cc(CO)c(=O)[nH]1
Put plainly: purified protein. The note with it: 1 mM α-KG, 0.2 mM (NH4)2Fe(SO4)2, 0.2 mM ascorbic acid, 100 mM Hepes pH 7.5, 25 °C.

Substrate in data set [3]: Cc1c[nH]c(=O)[nH]c1=O
Kind of data set: purified protein. The format is biochemical, Neurospora crassa. Particulars: 1 mM α-KG, 0.2 mM (NH4)2Fe(SO4)2, 0.2 mM ascorbic acid, 100 mM Hepes pH 7.5, 25 °C.

Substrate in data set [4]: O=Cc1c[nH]c(=O)[nH]c1=O
Kind of data set: purified protein. The format is biochemical, Neurospora crassa. Particulars: 1 mM α-KG, 0.2 mM (NH4)2Fe(SO4)2, 0.2 mM ascorbic acid, 100 mM Hepes pH 7.5, 25 °C.

What is called Kd is the concentration at which binding is half-saturated. A high value points to weaker binding. Take `O=C(O)CCC(=O)C(=O)O` [α-KG]: the affinity in data set [1], expressed as Kd, was 34.4 ± 6.63 µM.
On the same count and under the same terms, with `O=c1[nH]cc(CO)c(=O)[nH]1` [5hmU] the figure was 30.5 ± 5.59 µM; with `O=Cc1c[nH]c(=O)[nH]c1=O` [5fU], 108 ± 13 µM.
On the same count and under the same terms, with `Cc1c[nH]c(=O)[nH]c1=O` [T] the figure was 32 ± 5.24 µM; with `O=C(O)CNC(=O)C(=O)O` [NOG], 5.35 ± 1.26 µM.

B1: NcT7H (thymine-7-hydroxylase) (Neurospora crassa OR74A; R286A) (protein)
chain: MEKAAVNEDGLVIPLIDFSKFLEGDETLKLETAKAILHGFQTAGFIYLKNIPIQPDFREHVFNTSAKFFKLPKEKKLEVGWTTPEANRGYSAPGREKVTQLTDPAEIEKIRSAAPDIKESYEIGREDEPGHPNPWPAEQDDLVGFKSTMNNFFDQCKALHIEVMRAIAVGMGIDANYFDSFVDVGDNILRLLHYPAVKSEVFKINPGQVRAGEHTDYGSITLLFQDSRGGLQVKSPNGQFIDATPIENTVVVNAGDLLARWSNDTIKSTVHRVVEPPKQEDVHPPAYSIAYFCNPNHKSYIEAIPGTYAAESERKYEGINSGKYLVQRLAATY
notes: full length (residues 1-333), C-terminal His6-tag, pET-28a, expressed in E. coli BL21(DE3); Ni-NTA and gel filtration, tag removal not mentioned
A word on the Km: it is the substrate concentration at which the rate is half of its maximum. For orientation: kcat means the maximal rate divided by the concentration of active sites. What is called kcat/Km is the turnover number divided by the Michaelis constant. On to B1, for which, in “purified protein [2]”, the Km came to 950 ± 114 µM, the kcat turned out to be 0.141 s⁻¹ and the kcat/Km was 150 M⁻¹ s⁻¹. In the data set “purified protein [3]”, the Km was determined as 649 ± 74.1 µM, the kcat turned out to be 0.405 ± 0.0215 s⁻¹ and the specificity constant (kcat/Km) was 617 M⁻¹ s⁻¹.

B2: NcT7H (thymine-7-hydroxylase) (Neurospora crassa OR74A; Y217A) (protein)
chain: MEKAAVNEDGLVIPLIDFSKFLEGDETLKLETAKAILHGFQTAGFIYLKNIPIQPDFREHVFNTSAKFFKLPKEKKLEVGWTTPEANRGYSAPGREKVTQLTDPAEIEKIRSAAPDIKESYEIGREDEPGHPNPWPAEQDDLVGFKSTMNNFFDQCKALHIEVMRAIAVGMGIDANYFDSFVDVGDNILRLLHYPAVKSEVFKINPGQVRAGEHTDAGSITLLFQDSRGGLQVKSPNGQFIDATPIENTVVVNAGDLLARWSNDTIKSTVHRVVEPPKQEDVHPPRYSIAYFCNPNHKSYIEAIPGTYAAESERKYEGINSGKYLVQRLAATY
notes: as for B1
For B2, in “purified protein [3]”, the Km was determined as 1500 ± 332 µM, the kcat is 0.257 ± 0.0355 s⁻¹ and the kcat/Km was found to be 167 M⁻¹ s⁻¹.

B3: NcT7H (thymine-7-hydroxylase) (Neurospora crassa OR74A; R190K) (protein)
chain: MEKAAVNEDGLVIPLIDFSKFLEGDETLKLETAKAILHGFQTAGFIYLKNIPIQPDFREHVFNTSAKFFKLPKEKKLEVGWTTPEANRGYSAPGREKVTQLTDPAEIEKIRSAAPDIKESYEIGREDEPGHPNPWPAEQDDLVGFKSTMNNFFDQCKALHIEVMRAIAVGMGIDANYFDSFVDVGDNILKLLHYPAVKSEVFKINPGQVRAGEHTDYGSITLLFQDSRGGLQVKSPNGQFIDATPIENTVVVNAGDLLARWSNDTIKSTVHRVVEPPKQEDVHPPRYSIAYFCNPNHKSYIEAIPGTYAAESERKYEGINSGKYLVQRLAATY
notes: as for B1
Turning to B3, in the data set “purified protein [2]”, the Km was 1016 ± 200 µM, the kcat came out at 0.0353 s⁻¹ and the kcat/Km amounted to 33.3 M⁻¹ s⁻¹. Besides, in “purified protein [3]”, the Km came out at 542 ± 64.7 µM, the kcat amounted to 0.055 ± 0.003 s⁻¹ and the kcat/Km amounted to 100 M⁻¹ s⁻¹.

B4: NcT7H (thymine-7-hydroxylase) (Neurospora crassa OR74A; N87A) (protein)
chain: MEKAAVNEDGLVIPLIDFSKFLEGDETLKLETAKAILHGFQTAGFIYLKNIPIQPDFREHVFNTSAKFFKLPKEKKLEVGWTTPEAARGYSAPGREKVTQLTDPAEIEKIRSAAPDIKESYEIGREDEPGHPNPWPAEQDDLVGFKSTMNNFFDQCKALHIEVMRAIAVGMGIDANYFDSFVDVGDNILRLLHYPAVKSEVFKINPGQVRAGEHTDYGSITLLFQDSRGGLQVKSPNGQFIDATPIENTVVVNAGDLLARWSNDTIKSTVHRVVEPPKQEDVHPPRYSIAYFCNPNHKSYIEAIPGTYAAESERKYEGINSGKYLVQRLAATY
notes: as for B1
Turning to B4, in the data set “purified protein [2]”, the Km amounted to 1065 ± 156 µM, the kcat is 0.0962 s⁻¹ and the catalytic efficiency (kcat/Km) was 83.3 M⁻¹ s⁻¹. For the same molecule, in “purified protein [3]”, the Km is 638 ± 128 µM, the kcat worked out at 0.23 ± 0.022 s⁻¹ and the kcat/Km amounted to 367 M⁻¹ s⁻¹.

B5: NcT7H (thymine-7-hydroxylase) (Neurospora crassa OR74A) (protein)
chain: MEKAAVNEDGLVIPLIDFSKFLEGDETLKLETAKAILHGFQTAGFIYLKNIPIQPDFREHVFNTSAKFFKLPKEKKLEVGWTTPEANRGYSAPGREKVTQLTDPAEIEKIRSAAPDIKESYEIGREDEPGHPNPWPAEQDDLVGFKSTMNNFFDQCKALHIEVMRAIAVGMGIDANYFDSFVDVGDNILRLLHYPAVKSEVFKINPGQVRAGEHTDYGSITLLFQDSRGGLQVKSPNGQFIDATPIENTVVVNAGDLLARWSNDTIKSTVHRVVEPPKQEDVHPPRYSIAYFCNPNHKSYIEAIPGTYAAESERKYEGINSGKYLVQRLAATY
notes: as for B1
For B5, in the data set “purified protein [2]”, the Km came to 178 ± 16.4 µM, the kcat was 0.325 s⁻¹ and the kcat/Km came out at 1830 M⁻¹ s⁻¹. Also, in the data set “purified protein [4]”, the Km amounted to 253 ± 32.2 µM, the kcat is 0.765 ± 0.0357 s⁻¹ and the kcat/Km is 3020 M⁻¹ s⁻¹. In the data set “purified protein [3]”, the Km was found to be 141 ± 13.4 µM, the kcat came to 0.417 ± 0.0123 s⁻¹ and the kcat/Km is 2950 M⁻¹ s⁻¹.

B6: NcT7H (thymine-7-hydroxylase) (Neurospora crassa OR74A; Y217F) (protein)
chain: MEKAAVNEDGLVIPLIDFSKFLEGDETLKLETAKAILHGFQTAGFIYLKNIPIQPDFREHVFNTSAKFFKLPKEKKLEVGWTTPEANRGYSAPGREKVTQLTDPAEIEKIRSAAPDIKESYEIGREDEPGHPNPWPAEQDDLVGFKSTMNNFFDQCKALHIEVMRAIAVGMGIDANYFDSFVDVGDNILRLLHYPAVKSEVFKINPGQVRAGEHTDFGSITLLFQDSRGGLQVKSPNGQFIDATPIENTVVVNAGDLLARWSNDTIKSTVHRVVEPPKQEDVHPPRYSIAYFCNPNHKSYIEAIPGTYAAESERKYEGINSGKYLVQRLAATY
notes: as for B1
For B6, in “purified protein [2]”, the Km is 247 ± 35.2 µM, the kcat stood at 0.553 s⁻¹ and the kcat/Km came out at 2230 M⁻¹ s⁻¹. Moreover, in the data set “purified protein [4]”, the Km turned out to be 718 ± 213 µM, the kcat was 0.237 ± 0.0352 s⁻¹ and the specificity constant (kcat/Km) amounted to 333 M⁻¹ s⁻¹. In addition, in “purified protein [3]”, the Km stood at 128 ± 18.5 µM, the turnover number (kcat) stood at 0.542 ± 0.0228 s⁻¹ and the kcat/Km was determined as 4230 M⁻¹ s⁻¹.
